The supplement of paper PMC11780869

Tested on: Bacillus subtilis
Assay: cleaved RNA product abundance (RNA/gDNA barcode ratio) relative to median wild-type variant (ratio to wild type); higher = more accumulation of the downstream cleavage product
Conditions: experiment (reporter, strain, medium): exp 8a: truncated aprE reporter, strain BJT201 with 2% xylose (RNase J1 expressed); cleavage site: glnRA (positions -5 to +31 mutated)
Summary of the method: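 In LB at 37°C, B. subtilis cultures went from OD600 0.0003 to 0.3. Their chromosomes held barcoded reporter mRNAs, truncated aprE or tetM, with RNase Y cleavage-site windows mutagenized via oligos at a 9% error rate. Cleaved RNA, chosen by gel, was reverse transcribed and barcode-sequenced alongside genomic DNA barcodes with UMI collapsing, giving a per-construct RNA:gDNA ratio scaled to the median construct with the unmutated site. This scaled ratio is termed cleaved product abundance.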

| Sequence | cleaved RNA product abundance |
| --- | --- |
| CGACATGTCCCGCTTCTTTCATTAATCCGTTAGCAACTGTTTTGCTACATACATTAACCTTTTAAGAGGAGGAAT | 0.434 |
| CGACATGTCCCGCTTCTTTCATTAATCCGTTAGCAACTGTTTTGCTACATACATTTACCTTTTAAGAGGAGGAAT | 0.368 |
| CGACATGTCCCGCTTCTTTCATTAATCCGTTAGCAACTGTTTTGCTAGATACATATACCTTTTAAGAGGAGGAAT | 0.781 |
| CGACATGTCCCGCTTCTTTCATTAATCCGTTAGCAACTGTTTTGCTAGATACATTTACATTTTAAGAGGAGGAAT | 0.424 |
| CGACATGTCCCGCTTCTTTCATTAATCCGTTAGCAACTGTTTTGCTAGATACATTTACCTTTTAAGAGGAGGAAT | 0.43 |
| CGACATGTCCCGCTTCTTTCATTAATCCGTTAGCAACTGTTTTGCTAGATACATTTACTTTTTAAGAGGAGGAAT | 0.636 |
| CGACATGTCCCGCTTCTTTCATTAATCCGTTAGCAACTGTTTTGCTATAAAAATTTACCTTTTAAGAGGAGGAAT | 0.405 |
| CGACATGTCCCGCTTCTTTCATTAATCCGTTAGCAACTGTTTTGCTATAAACATTTAACTTTTAAGAGGAGGAAT | 0.912 |
| CGACATGTCCCGCTTCTTTCATTAATCCGTTAGCAACTGTTTTGCTATAAACATTTACCTTTTAAGAGGAGGAAT | 0.603 |
| CGACATGTCCCGCTTCTTTCATTAATCCGTTAGCAACTGTTTTGCTATAAACATTTACGTTTTAAGAGGAGGAAT | 1.32 |
| CGACATGTCCCGCTTCTTTCATTAATCCGTTAGCAACTGTTTTGCTATAAACATTTATCTTTTAAGAGGAGGAAT | 0.717 |
| CGACATGTCCCGCTTCTTTCATTAATCCGTTAGCAACTGTTTTGCTATAAACCTTTACCTTTTAAGAGGAGGAAT | 0.163 |
| CGACATGTCCCGCTTCTTTCATTAATCCGTTAGCAACTGTTTTGCTATAAACTTTTACCTTTTAAGAGGAGGAAT | 0.318 |
| CGACATGTCCCGCTTCTTTCATTAATCCGTTAGCAACTGTTTTGCTATAAATATTTACCTTTTAAGAGGAGGAAT | 1.49 |
| CGACATGTCCCGCTTCTTTCATTAATCCGTTAGCAACTGTTTTGCTATACACATTTACATTTTAAGAGGAGGAAT | 0.372 |
| CGACATGTCCCGCTTCTTTCATTAATCCGTTAGCAACTGTTTTGCTATACACATTTACCTTTTAAGAGGAGGAAT | 0.459 |
| CGACATGTCCCGCTTCTTTCATTAATCCGTTAGCAACTGTTTTGCTATACACATTTACTTTTTAAGAGGAGGAAT | 0.146 |
| CGACATGTCCCGCTTCTTTCATTAATCCGTTAGCAACTGTTTTGCTATAGACATTCACCTTTTAAGAGGAGGAAT | 0.435 |
| CGACATGTCCCGCTTCTTTCATTAATCCGTTAGCAACTGTTTTGCTATAGACATTTAACTTTTAAGAGGAGGAAT | 1.15 |
| CGACATGTCCCGCTTCTTTCATTAATCCGTTAGCAACTGTTTTGCTATAGACATTTACCTTTTAAGAGGAGGAAT | 0.624 |
| CGACATGTCCCGCTTCTTTCATTAATCCGTTAGCAACTGTTTTGCTATATAAAATTACCTTTTAAGAGGAGGAAT | 0.606 |
| CGACATGTCCCGCTTCTTTCATTAATCCGTTAGCAACTGTTTTGCTATATAAATATACCTTTTAAGAGGAGGAAT | 1.3 |

| Sequence | cleaved RNA product abundance |
| --- | --- |
| CGACATGTCCCGCTTCTTTCATTAATCCGTTAGCAACTGTTTTGCTATATAAATCTACCTTTTAAGAGGAGGAAT | 1.49 |
| CGACATGTCCCGCTTCTTTCATTAATCCGTTAGCAACTGTTTTGCTATATAAATGTACCTTTTAAGAGGAGGAAT | 1.78 |
| CGACATGTCCCGCTTCTTTCATTAATCCGTTAGCAACTGTTTTGCTATATAAATTAACCTTTTAAGAGGAGGAAT | 1.01 |
| CGACATGTCCCGCTTCTTTCATTAATCCGTTAGCAACTGTTTTGCTATATAAATTTACATTTTAAGAGGAGGAAT | 1.83 |
| CGACATGTCCCGCTTCTTTCATTAATCCGTTAGCAACTGTTTTGCTATATAAATTTACCTTTTAAGAGGAGGAAT | 0.938 |
| CGACATGTCCCGCTTCTTTCATTAATCCGTTAGCAACTGTTTTGCTATATAAATTTACGTTTTAAGAGGAGGAAT | 1.02 |
| CGACATGTCCCGCTTCTTTCATTAATCCGTTAGCAACTGTTTTGCTATATAAATTTATCTTTTAAGAGGAGGAAT | 2.04 |
| CGACATGTCCCGCTTCTTTCATTAATCCGTTAGCAACTGTTTTGCTATATACAACTACCTTTTAAGAGGAGGAAT | 1.12 |
| CGACATGTCCCGCTTCTTTCATTAATCCGTTAGCAACTGTTTTGCTATATACAATAACCTTTTAAGAGGAGGAAT | 0.855 |
| CGACATGTCCCGCTTCTTTCATTAATCCGTTAGCAACTGTTTTGCTATATACAATTAACTTTTAAGAGGAGGAAT | 2.58 |
| CGACATGTCCCGCTTCTTTCATTAATCCGTTAGCAACTGTTTTGCTATATACAATTACCTTTTAAGAGGAGGAAT | 0.983 |
| CGACATGTCCCGCTTCTTTCATTAATCCGTTAGCAACTGTTTTGCTATATACAATTATCTTTTAAGAGGAGGAAT | 0.873 |
| CGACATGTCCCGCTTCTTTCATTAATCCGTTAGCAACTGTTTTGCTATATACAATTGCCTTTTAAGAGGAGGAAT | 0.532 |
| CGACATGTCCCGCTTCTTTCATTAATCCGTTAGCAACTGTTTTGCTATATACAATTTACCTTTTAAGAGGAGGAA | 1.39 |
| CGACATGTCCCGCTTCTTTCATTAATCCGTTAGCAACTGTTTTGCTATATACACGTACCTTTTAAGAGGAGGAAT | 0.835 |
| CGACATGTCCCGCTTCTTTCATTAATCCGTTAGCAACTGTTTTGCTATATACACTTAACTTTTAAGAGGAGGAAT | 0.785 |
| CGACATGTCCCGCTTCTTTCATTAATCCGTTAGCAACTGTTTTGCTATATACACTTACCTTTTAAGAGGAGGAAT | 0.964 |
| CGACATGTCCCGCTTCTTTCATTAATCCGTTAGCAACTGTTTTGCTATATACACTTATCTTTTAAGAGGAGGAAT | 0.672 |
| CGACATGTCCCGCTTCTTTCATTAATCCGTTAGCAACTGTTTTGCTATATACAGTTACCTTTTAAGAGGAGGAAT | 0.464 |
| CGACATGTCCCGCTTCTTTCATTAATCCGTTAGCAACTGTTTTGCTATATACAGTTACGTTTTAAGAGGAGGAAT | 0.192 |
| CGACATGTCCCGCTTCTTTCATTAATCCGTTAGCAACTGTTTTGCTATATACATATAACTTTTAAGAGGAGGAAT | 1.73 |
| CGACATGTCCCGCTTCTTTCATTAATCCGTTAGCAACTGTTTTGCTATATACATATACATTTTAAGAGGAGGAAT | 0.68 |

| Sequence | cleaved RNA product abundance |
| --- | --- |
| CGACATGTCCCGCTTCTTTCATTAATCCGTTAGCAACTGTTTTGCTATATACATATACCATTTAAGAGGAGGAAT | 0.971 |
| CGACATGTCCCGCTTCTTTCATTAATCCGTTAGCAACTGTTTTGCTATATACATATACCTTTTAAGAGGAGGAAT | 1.04 |
| CGACATGTCCCGCTTCTTTCATTAATCCGTTAGCAACTGTTTTGCTATATACATATACGTTTTAAGAGGAGGAAT | 1.29 |
| CGACATGTCCCGCTTCTTTCATTAATCCGTTAGCAACTGTTTTGCTATATACATATACTTTTTAAGAGGAGGAAT | 0.975 |
| CGACATGTCCCGCTTCTTTCATTAATCCGTTAGCAACTGTTTTGCTATATACATATATCTTTTAAGAGGAGGAAT | 1.06 |
| CGACATGTCCCGCTTCTTTCATTAATCCGTTAGCAACTGTTTTGCTATATACATATTCCTTTTAAGAGGAGGAAT | 0.511 |
| CGACATGTCCCGCTTCTTTCATTAATCCGTTAGCAACTGTTTTGCTATATACATCTACATTTTAAGAGGAGGAAT | 1.27 |
| CGACATGTCCCGCTTCTTTCATTAATCCGTTAGCAACTGTTTTGCTATATACATCTACCTTTTAAGAGGAGGAAT | 0.867 |
| CGACATGTCCCGCTTCTTTCATTAATCCGTTAGCAACTGTTTTGCTATATACATGTACCTTTTAAGAGGAGGAAT | 0.738 |
| CGACATGTCCCGCTTCTTTCATTAATCCGTTAGCAACTGTTTTGCTATATACATTAACCGTTTAAGAGGAGGAAT | 0.934 |
| CGACATGTCCCGCTTCTTTCATTAATCCGTTAGCAACTGTTTTGCTATATACATTAACCTTTTAAGAGGAGGAAT | 1.37 |
| CGACATGTCCCGCTTCTTTCATTAATCCGTTAGCAACTGTTTTGCTATATACATTAACTTTTTAAGAGGAGGAAT | 1.71 |
| CGACATGTCCCGCTTCTTTCATTAATCCGTTAGCAACTGTTTTGCTATATACATTAATCTTTTAAGAGGAGGAAT | 1.54 |
| CGACATGTCCCGCTTCTTTCATTAATCCGTTAGCAACTGTTTTGCTATATACATTACCCTTTTAAGAGGAGGAAT | 0.597 |
| CGACATGTCCCGCTTCTTTCATTAATCCGTTAGCAACTGTTTTGCTATATACATTAGCCTTTTAAGAGGAGGAAT | 0.519 |
| CGACATGTCCCGCTTCTTTCATTAATCCGTTAGCAACTGTTTTGCTATATACATTCACCTTTTAAGAGGAGGAAT | 0.581 |
| CGACATGTCCCGCTTCTTTCATTAATCCGTTAGCAACTGTTTTGCTATATACATTGACCATTTAAGAGGAGGAAT | 0.525 |
| CGACATGTCCCGCTTCTTTCATTAATCCGTTAGCAACTGTTTTGCTATATACATTGACCTTTTAAGAGGAGGAAT | 0.989 |
| CGACATGTCCCGCTTCTTTCATTAATCCGTTAGCAACTGTTTTGCTATATACATTTAACATTTAAGAGGAGGAAT | 0.609 |
| CGACATGTCCCGCTTCTTTCATTAATCCGTTAGCAACTGTTTTGCTATATACATTTAACGTTTAAGAGGAGGAAT | 1.13 |
| CGACATGTCCCGCTTCTTTCATTAATCCGTTAGCAACTGTTTTGCTATATACATTTAACTTTTAAGAGGAGGAAT | 1.24 |
| CGACATGTCCCGCTTCTTTCATTAATCCGTTAGCAACTGTTTTGCTATATACATTTACAATTTAAGAGGAGGAAT | 1.08 |
